Test results reported in patent publication US10155811B2, “APLNR modulators and uses thereof” (Regeneron Pharmaceuticals, Inc., priority 2013, dated 2018).

How the values were obtained:
hAPLNR [1] = target: T1, hAPLNR (Homo sapiens, UniProt P35414); test: CRE-luciferase cyclic AMP assay, activation of hAPLNR (inhibition of Forskolin-induced cAMP) in HEK293/CRE-luc/hAPLNR cells; assay type: cell-based; parameters: expressed in transfected cells; settings: without Apelin; for % Activation at 100 nM mAb (at 10 uM Forskolin) / % Activation at 100 nM mAb (at 5 uM Forskolin): Table 6A, % of maximum Apelin activation
T1 sequence (P35414 1-380): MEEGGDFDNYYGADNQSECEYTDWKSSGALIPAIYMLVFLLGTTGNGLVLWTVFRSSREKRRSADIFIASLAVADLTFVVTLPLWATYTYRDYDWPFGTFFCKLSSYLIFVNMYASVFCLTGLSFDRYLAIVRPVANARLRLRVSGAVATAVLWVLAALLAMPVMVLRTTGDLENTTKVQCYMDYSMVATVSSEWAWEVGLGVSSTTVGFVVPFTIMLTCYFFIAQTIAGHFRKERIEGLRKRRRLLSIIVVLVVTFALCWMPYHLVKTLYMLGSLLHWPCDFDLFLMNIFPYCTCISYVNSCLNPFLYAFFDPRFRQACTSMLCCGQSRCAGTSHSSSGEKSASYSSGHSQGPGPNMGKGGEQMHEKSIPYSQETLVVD
Protocol: The ability of anti-APLNR antibodies to activate hAPLNR-mediated cell signaling was measured using a cyclic AMP assay. The hAPLNR is a 7-transmembrane G-protein coupled receptor (GPCR).
(§1) The resulting cell line, HEK293/CRE-luc/hAPLNR, was maintained in DMEM containing 10% FBS, NEAA, pencillin/streptomycin, and 100 μg/mL Hygromycin B.
(§2) Testing of antibodies included a no antibody control.
(§3) The results of all assays were analyzed using nonlinear regression (4-parameter logistics) within Prism 5 software (GraphPad).

HEK293 parental cells = test: FACS binding to HEK293 parental cells; settings: Table 3; 10 μg/mL antibody; anti-mouse IgG Alexa 647
Protocol: Binding ratios for human APLNR binding to purified anti-APLNR monoclonal antibodies were determined by a fluorescence-activated cell sorting (FACS) binding assay. […] The resulting stable cell lines, HEK293/CRE-luc/hAPLNR and HEK293/CRE-luc/MfAPLNR, were maintained in DMEM containing 10% FBS, NEAA, and penicillin/streptomycin with either 100 μg/mL Hygromycin B for hAPLNR cells or 500 μg/mL G418 for MfAPLNR cells.
For the FACS analysis, HEK293 parental, HEK293/CRE-luc/hAPLNR, and, HEK293/CRE-luc/mfAPLNR cells were dissociated using Enzyme Free Dissociation reagent (#S-004, Millipore, Billerica, Mass., USA) and 10^6 cells/well were plated onto 96-well v-bottom plates in PBS containing 1% FBS. […] Cells were then filtered and analyzed on Accuri Flow Cytometer (BD Biosciences, San Jose, Calif., USA). Unstained and secondary antibody alone controls were also tested for binding to all cell lines. […] Geometric mean (Geom. mean) of fluorescence for each antibody was then normalized to geometric mean of unstained cells to obtain relative binding of antibody (binding ratios) per each cell type: HEK293 (parental), HEK293/CRE-luc/hAPLNR and HEK293/CRE-luc/MfAPLNR.

hAPLNR [2] = target: T1, hAPLNR; test: CRE-luciferase cyclic AMP assay, inhibition of hAPLNR in the presence of 100 ρM Apelin in HEK293/CRE-luc/hAPLNR cells; assay type: cell-based; parameters: expressed in transfected cells; settings: for % Inhibition at 100 nM antibody, in the presence of 100 ρM Apelin (at 5 μM Forskolin): Table 6D; for inhibition (maximum blockade) of 100 ρM Apelin activation: unmodified anti-APLNR antibodies
Protocol: as §1, §2, §3

B1: H2aM9227N: anti-APLNR antibody, HCVR/LCVR SEQ ID NO: 50/58, mouse IgG2a Fc (antibody, V domains shown)
VH: EVQLVESGGGLVQPGGSLRLSCAASGFTFSSFWMSWVRQVPGKGLEWVANIKQDGSEKYYVDSVKGRFTISRDNAKNSLYLQMNSLRAEDTAVYYCARDRFGYSFYDKGVRYYYGMDVWGQGTTVTVSS
VL: DIQMTQSPSSLSVSVGDRVTITCRASQGIRNDLGWYQQKPGKAPKRLIYATSSLQSGVPSRFSGSGSGTEFTLTISGLQPEDFATYYCLQHNSYPRTFGQGTKVEIK
modifications: mouse IgG2a Fc
hAPLNR [1]
  % Activation at 100 nM mAb (at 10 uM Forskolin): 12%
hAPLNR [1]; 100 nM highest antibody dose tested
  activation of hAPLNR, % of maximum Apelin activation at 100 nM: 12%
HEK293 parental cells
  Binding Ratio of Geom. Mean to Unstained Cells, HEK293 Parental: 4

B2: H2aM9230N: anti-APLNR antibody, HCVR/LCVR SEQ ID NO: 82/90, mouse IgG2a Fc (antibody, V domains shown)
VH: EVQLVESGGGLVQPGGSLRLSCAASGFTFSSFWMSWVRQVPGKGLQWVANIKQDGSEKYYVDSVKGRFTISRDNAKNSLYLQMNSLRAEDTAVYYCARDRFGYSVYDKGVRYYYGMDVWGQGTTVTVSS
VL: DIQMTQSPSSLSVSVGDRVTITCRASQGIRNDLGWYQQKPGKAPKRLIYAASSLQSGVPSRFSGSGSGTEFTLTISGLQSEDFATYYCLQHKSYPRTFGQGTKVEIK
modifications: mouse IgG2a Fc
hAPLNR [1]
  % Activation at 100 nM mAb (at 10 uM Forskolin): No Activation
HEK293 parental cells
  Binding Ratio of Geom. Mean to Unstained Cells, HEK293 Parental: 3

B3: H2aM9228N: anti-APLNR antibody, HCVR/LCVR SEQ ID NO: 66/74, mouse IgG2a Fc (antibody, V domains shown)
VH: EVQLVESGGGLVQPGGSLRLSCAASGFTFSNYWMSWVRLAPGKGLEWVANIKQDGSERYYVGSVKGRFTISRGDAKNSLYLQMNSLRAEDTAVYYCARDRFGYSAFDKGVRYYYGMDVWGQGTTVTVSS
VL: DIQMTQSPSSLSASVGDRVTITCRASQGIRNDLGWYQQKPGKAPKRLIYAASSLQSGVPSRFSGSGSGTEFTLTISSLQPEDFATYYCLQHNSYPRTFGQGTKVEIK
modifications: mouse IgG2a Fc
hAPLNR [1]
  % Activation at 100 nM mAb (at 10 uM Forskolin): No Activation
HEK293 parental cells
  Binding Ratio of Geom. Mean to Unstained Cells, HEK293 Parental: 3

B4: H4H9113P: anti-APLNR antibody, HCVR/LCVR SEQ ID NO: 210/218, human IgG4 Fc (antibody, V domains shown)
VH: QVQLVQSGAEVKKPGASVEVSCKASGYTFTDYYIHWIRQAPGQGLEWMGWINPDSGRTNYAQKFQVRVTMTRDTSITTAYMELNRLKSDDTAVYYCARGPLRGYSGYDFFDYWGQGTLVTVSS
VL: DIQMTQSPSSLSASVGDRVTITCRASQGIRNDLGWYQQKPGKAPNRLIYAASSLQSGVPSRFSGSGSGTEFTLTISSLHPEDFATYSCLQHNSFPLTFGGGTKVEIK
modifications: human IgG4 Fc
hAPLNR [1]
  % Activation at 100 nM mAb (at 5 uM Forskolin): No Activation
hAPLNR [2]
  % Inhibition at 100 nM antibody, in the presence of 100 ρM Apelin (at 5 μM Forskolin): No Inhibition
  inhibition (maximum blockade) of 100 ρM Apelin activation: did not demonstrate any measurable blockade

B5: H4H9101P: anti-APLNR antibody, HCVR/LCVR SEQ ID NO: 146/154, human IgG4 Fc (antibody, V domains shown)
VH: QVQLVQSGAEVKKPGASVEVSCKASGYTFTDYYIHWIRQAPGQGLEWMGWINPDSGRTNYAQKFQVRVTMTRDTSITTAYMELNRLKSDDTAVYYCARGPLRGYSGYDFFDYWGQGTLVTVSS
VL: DIQLTQSPSFLSASVGDRVTITCWASQGISSYLAWYQQKPGKAPKLLIYAASTLQSGVPSRFSGSGSGTEFTLTISSLQPEDFASYFCQQLNSNPRTFGQGTKVEIK
modifications: human IgG4 Fc
hAPLNR [1]
  % Activation at 100 nM mAb (at 5 uM Forskolin): No Activation
hAPLNR [2]
  % Inhibition at 100 nM antibody, in the presence of 100 ρM Apelin (at 5 μM Forskolin): No Inhibition
  inhibition (maximum blockade) of 100 ρM Apelin activation: did not demonstrate any measurable blockade

B6: H1M9207N: anti-APLNR antibody, HCVR/LCVR SEQ ID NO: 2/10, mouse IgG1 Fc (antibody, V domains shown)
VH: EVQLVESGGGLAQPGGSLRLSCAASGFTFSNYWMSWVRQAPGKGLEWVANIKQDGSEKYYLESVKGRFTISRDNAKNLLYLQMNSLRAEDTAVFYCARPGLLRFLEPGRRYYSGMNVWGQGTTVTVSS
VL: DIQLTQSPSFLSASVGDRVTITCWASQGIRSYLAWYQQKPGKAPKLLIYAASTLQSGVPSRFSGSGSGTEFTLTISSLQPEDFATYYCQQFNSYPWTFGQGTKVEIK
modifications: mouse IgG1 Fc
hAPLNR [1]
  % Activation at 100 nM mAb (at 10 uM Forskolin): No Activation
HEK293 parental cells
  Binding Ratio of Geom. Mean to Unstained Cells, HEK293 Parental: 4

B7: H4H9112P: anti-APLNR antibody, HCVR/LCVR SEQ ID NO: 194/202, human IgG4 Fc (antibody, V domains shown)
VH: QVQLVQSGAEVKKPGASVEVSCKASGYTFTDYYIHWIRQAPGQGLEWMGWINPDSGRTNYAQKFQVRVTMTRDTSITTAYMELNRLKSDDTAVYYCARGPLRGYSGYDFFDYWGQGTLVTVSS
VL: DIQMTQSPSSLSAFVGDRVTITCRASQSISSYLNWYQQKPGKAPKLLIYTASTLQRGVPSRFRGSGSGTDFTLTISSLQPEDFATYYCHQTYSIPITFGQGTRLEIK
modifications: human IgG4 Fc
hAPLNR [1]
  % Activation at 100 nM mAb (at 5 uM Forskolin): No Activation
hAPLNR [2]
  % Inhibition at 100 nM antibody, in the presence of 100 ρM Apelin (at 5 μM Forskolin): No Inhibition
  inhibition (maximum blockade) of 100 ρM Apelin activation: did not demonstrate any measurable blockade

B8: H4H9104P: anti-APLNR antibody, HCVR/LCVR SEQ ID NO: 178/186, human IgG4 Fc (antibody, V domains shown)
VH: QVQLVESGGDLVKPGGSLRLSCAASGFTFSDYYMNWIRQAPGKGLEWVSYISSSGSTIHYADSVKGRFTISRDNAKNLVYLRMNSLRAEDTAVYFCAREREVHDYSDPYFFFYGMDVWGQGTTVTVSS
VL: DIQMTQSPSSVSASVGDRVTITCRASQDVSSWLAWYQHKPGKAPKLLIFAASSLQSGVPSRFSGSGSGTDFTLTISSLQSEDFATYYCQQANSFPLTFGGGTKVEIK
modifications: human IgG4 Fc
hAPLNR [1]
  % Activation at 100 nM mAb (at 5 uM Forskolin): No Activation
hAPLNR [2]
  % Inhibition at 100 nM antibody, in the presence of 100 ρM Apelin (at 5 μM Forskolin): No Inhibition
  inhibition (maximum blockade) of 100 ρM Apelin activation: did not demonstrate any measurable blockade

B9: H4H9103P: anti-APLNR antibody, HCVR/LCVR SEQ ID NO: 162/170, human IgG4 Fc (antibody, V domains shown)
VH: EVQLVESGGGLVQPGRSLRLSCAASGFTFDDYAMHWVRQVPGKGLEWVSGITWNSGDIGYADSVKGRFTISRDNAKNSLYLQMNSLRAEDTALYYCTKDKDSSGYYGIDVWGQGTTVTVSS
VL: DIQMTQSPSSVSASVGDRVTITCRASQGIRTWLAWYQQKPGKAPKLLIYAASSLQSGVPSRFSGSESGTDFTLTISSLQPEDFATYYCQQANSFPFTFGPGTKVDIK
modifications: human IgG4 Fc
hAPLNR [1]
  % Activation at 100 nM mAb (at 5 uM Forskolin): No Activation
hAPLNR [2]
  % Inhibition at 100 nM antibody, in the presence of 100 ρM Apelin (at 5 μM Forskolin): No Inhibition
  inhibition (maximum blockade) of 100 ρM Apelin activation: did not demonstrate any measurable blockade
